Measured values as given in the nanobody polyreactivity screen of Harvey et al. (2022).

experiment: yeast display, Sf9 membrane polyspecificity reagent, FACS + sequencing; frameworks hold sequencing errors
Method in brief: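 Sorting gates, low and high (top ~1%), were placed on anti-HA fluorescence to track expression and on streptavidin fluorescence to track reagent binding. A clone's polyreactivity label is taken from the gate it came out of. The reagent was 10% biotinylated, detergent-solubilized Sf9 membrane, applied for 1 hour at 4 °C to galactose-induced yeast display cells.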

| Sequence | polyreactivity (PSR sort gate) |
| --- | --- |
| QVQLVESGGGLVQAGGSLRLSCAASGFTFETNAMGWYRQAHGKERELVATITGGGSTNYADSVKGRFTISRDNAKNTVYLQMNSLKPEDTAVYYCNAVHEASYAGVDYWGQGTQVTVSS | low polyreactivity |
| QVQLVESGGGLVQAGGSLRLSCAASGFTFFENAMGWYRQAPGKERELVAAIRKSGDRTYYADSVKGRFTISRDNAKNTVYLQMNSLKPEDTAVYYCAAPLSLRSSFGSWGQGTQVTVSS | high polyreactivity |
| QVQLVESGGGLVQAGGSLRLSCAASGFTFFGYAMGWYRQEPGKERELVAAISTIDGDTYYADSVKGRFTISRDNAKNSFYFLMNSLKPEDTAVYYCAADDYIDGDDYWGQGTQVTVSS | low polyreactivity |
| QVQLVESGGGLVQAGGSLRLSCAASGFTFFHYAMGWYIQAPGKERELVAAITRSGSSTYYADSVKGRFTISRDNAKNTVYLQMNSLKPEDTAVYYCAADYISRGGYTIEDYWGQGTQVTVSS | low polyreactivity |
| QVQLVESGGGLVQAGGSLRLSCAASGFTFFIYAMGWYRQAPGKERELVAAISLSGTSTYYADSVKGRFTISRDNAKNSVYLQMNSLKPEDTAVYYCAKDGAYWTYYSGYDYWGQVTQVTVSS | low polyreactivity |
| QVQLVESGGGLVQAGGSLRLSCAASGFTFFIYAMGWYRQAPGKERELVAAISWRGDRTYYADSVKGRFTISRDNAKNTVYLQMNSMKPEDTAVYYCAKSVWRRVYYARYDDRHNYWGQGTQVTVSS | high polyreactivity |
| QVQLVESGGGLVQAGGSLRLSCAASGFTFFKYAMGWYRQAPGKERELVAAITRNGGRTYYADSVKGRFTISRDYAKNTVYLQMNSLKPEDTAVYYCNAASVNGGRDFDYWGQGTQVTVSS | high polyreactivity |
| QVQLVESGGGLVQAGGSLRLSCAASGFTFFSNAMGWYRQAPGKERELVAAITSSGGSTYADSVKGRFTISRDNAKNTVYLQMNSLKPEDTAVYYCAAELYDYGDLYYSEYDYWGQGTQVTVSS | low polyreactivity |
| QVQLVESGGGLVQAGGSLRLSCAASGFTFFTNAMGWYRKAPGKEREFVAAISGSGSRTYYADSVKGRFTISRDNAKNTVYLQMNSLIPEDTAVYYCAARVRGVYPFDYWGQGTQVTVSS | high polyreactivity |
| QVQLVESGGGLVQAGGSLRLSCAASGFTFFTYAMGWYRQAPGKERELVAAITSGGSTNYADSVKGRFTISRDNAKNTVYLQMNSLKPEDTAVYYCATRAYSDATTFYGYQRSDSWGQGTQVTVSS | low polyreactivity |
| QVQLVESGGGLVQAGGSLRLSCAASGFTFFVSAMGWYRQAPRKERELVAVITSGGTTNYADSVKGRFTISRDIAKKTVYLQMNSLKPEDTAVYYCNGRGEKRGYYYWGQGTQVSVSS | high polyreactivity |
| QVQLVESGGGLVQAGGSLRLSCAASGFTFFYNAMGWYRQAPGKEREFVAAISGRGGTTYYADSVKGRFTISRDNAKNTVYLQMNSLKPEDTAVYYCNAGSSPIRQYYGQVWKKGGYWGQGTQVTVSS | high polyreactivity |
| QVQLVESGGGLVQAGGSLRLSCAASGFTFGANVMGWYRQAPGKERELVAGITWSGDSTYYADSVKGRFTISRDNAKNTVYLQMNSLKPDDTAVYYCAADVYDGEYILDYDYWGQGTQVTVSS | low polyreactivity |
| QVQLVESGGGLVQAGGSLRLSCAASGFTFGAYAMGWYRHAPGKERELVAAINRRGGSTYYADSVKGRFTISRENAKNTVYLQMKSLKPEDTAVYYCNAPFGYDYWGQGTQVTVSS | high polyreactivity |
| QVQLVESGGGLVQAGGSLRLSCAASGFTFGAYAMGWYRQAPGKERELVAAITGSGGNTFYADSVKGRFTISRDNAKNSVYLEMNCLKTEDTAVYYCAKTWYPWSRYGYYRRYDSWGQGTQVTVSS | low polyreactivity |
| QVQLVESGGGLVQAGGSLRLSCAASGFTFGDYAMGRYRPEPGKERELVAAISSGGNTNYADSVKGRFTISRDNAKHTVYLQMNRLKPEDTAVNNCAPRRQSKGYKLNYWGHGTQVTVSS | high polyreactivity |
| QVQLVESGGGLVQAGGSLRLSCAASGFTFGFYAMGRYRQAPGKERELVARISYSGGSTYYADSVKGRFTISRDKAKNTVYLQMNSLKPEDTAVYYCNRGYRRLQEDYWGQGTQVTVSS | high polyreactivity |
